{
  "source": "the supplement of paper PMC10065799",
  "about": "“High-throughput profiling of sequence recognition by tyrosine kinases and SH2 domains using bacterial peptide display” (eLife, 2023);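 for SH2 binding enrichment of the phosphorylated peptide, bacterial display: peptide library displayed on the E. coli surface as eCPX fusions, selected cells deep-sequenced, score is each peptide's frequency after selection divided by its frequency in the input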;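 for phosphorylation enrichment, bacterial display: 11-residue human phosphosite peptides and single-mutation variants displayed on the E. coli surface, counted by deep sequencing, each peptide's frequency after selection divided by its frequency in the unselected input library; frequency after pTyr selection over input frequency; kinase dosed for 20-30% of maximal phosphorylation in three min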",
  "data": [
    {"target": "SHP2-C SH2", "experiment": "SH2 binding enrichment of the phosphorylated peptide, bacterial display (enrichment ratio); higher = better substrate or ligand; peptides without Tyr show the background", "values": [
      {"sequence": "RTLIRYAKLGN [BEST1_Y131_N133K]", "SH2 binding enrichment": 1.11},
      {"sequence": "DDEENYENVPR [FCRL3_Y722]", "SH2 binding enrichment": 0.9},
      {"sequence": "TDKLFYIFTPG [SLC27A4_Y243_S247P_YF]", "SH2 binding enrichment": 0.604},
      {"sequence": "MASISYDFCRV [BST2_Y6_T4I_YF]", "SH2 binding enrichment": 0.666},
      {"sequence": "KIVYVYVKKRS [DNAI2_Y7_E2K]", "SH2 binding enrichment": 0.848},
      {"sequence": "FKDGQYWIRGR [ACSF3_Y466]", "SH2 binding enrichment": 0.359},
      {"sequence": "DFFDLYGGEKL [PTPN11_Y66_F71L_YF]", "SH2 binding enrichment": 0.979},
      {"sequence": "REIIAYQPFGK [PRKCG_Y529_P524R_YF]", "SH2 binding enrichment": 0.951},
      {"sequence": "LIDGFYRLTAD [JAK2_Y373_YF]", "SH2 binding enrichment": 0.759},
      {"sequence": "QRRYVYYYSYL [PTEN_Y176]", "SH2 binding enrichment": 3.88},
      {"sequence": "SKLTIYDGRPS [MTM1_Y277_A279G]", "SH2 binding enrichment": 0.638},
      {"sequence": "TSFQMYDKGLV [IARS2_Y231_F227S_YF]", "SH2 binding enrichment": 0.538},
      {"sequence": "SVICTYSPALN [TP53_Y126_T123I]", "SH2 binding enrichment": 0.731},
      {"sequence": "ILTLKYLIEHG [ACTG1_Y69_P70L]", "SH2 binding enrichment": 1.03},
      {"sequence": "WLFFRYLAIGC [ATP2A2_Y836]", "SH2 binding enrichment": 0.573},
      {"sequence": "LINLKYSVEEE [PCDH19_Y27]", "SH2 binding enrichment": 0.548}
    ]},
    {"target": "Grb2 SH2 (UniProt P62993)", "sequence (P62993 whole entry, looked up)": "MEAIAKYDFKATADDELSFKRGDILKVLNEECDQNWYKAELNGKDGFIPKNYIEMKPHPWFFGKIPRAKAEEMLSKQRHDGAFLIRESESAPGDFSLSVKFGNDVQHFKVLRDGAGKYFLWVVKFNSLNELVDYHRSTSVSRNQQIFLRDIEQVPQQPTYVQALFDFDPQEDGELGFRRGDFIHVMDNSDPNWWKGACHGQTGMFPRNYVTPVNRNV", "experiment": "SH2 binding enrichment of the phosphorylated peptide, bacterial display (enrichment ratio); higher = better substrate or ligand; peptides without Tyr show the background", "values": [
      {"sequence": "RTLIRYAKLGN [BEST1_Y131_N133K]", "SH2 binding enrichment": 1.14},
      {"sequence": "DDEENYENVPR [FCRL3_Y722]", "SH2 binding enrichment": 1.04},
      {"sequence": "TDKLFYIFTPG [SLC27A4_Y243_S247P_YF]", "SH2 binding enrichment": 0.787},
      {"sequence": "MASISYDFCRV [BST2_Y6_T4I_YF]", "SH2 binding enrichment": 0.764},
      {"sequence": "KIVYVYVKKRS [DNAI2_Y7_E2K]", "SH2 binding enrichment": 0.745},
      {"sequence": "FKDGQYWIRGR [ACSF3_Y466]", "SH2 binding enrichment": 0.825},
      {"sequence": "DFFDLYGGEKL [PTPN11_Y66_F71L_YF]", "SH2 binding enrichment": 1.02},
      {"sequence": "REIIAYQPFGK [PRKCG_Y529_P524R_YF]", "SH2 binding enrichment": 1.19},
      {"sequence": "LIDGFYRLTAD [JAK2_Y373_YF]", "SH2 binding enrichment": 0.918},
      {"sequence": "QRRYVYYYSYL [PTEN_Y176]", "SH2 binding enrichment": 1.07},
      {"sequence": "SKLTIYDGRPS [MTM1_Y277_A279G]", "SH2 binding enrichment": 0.94},
      {"sequence": "TSFQMYDKGLV [IARS2_Y231_F227S_YF]", "SH2 binding enrichment": 0.547},
      {"sequence": "SVICTYSPALN [TP53_Y126_T123I]", "SH2 binding enrichment": 0.838},
      {"sequence": "ILTLKYLIEHG [ACTG1_Y69_P70L]", "SH2 binding enrichment": 1.25},
      {"sequence": "WLFFRYLAIGC [ATP2A2_Y836]", "SH2 binding enrichment": 0.826},
      {"sequence": "LINLKYSVEEE [PCDH19_Y27]", "SH2 binding enrichment": 0.868}
    ]},
    {"target": "c-Src SH2", "experiment": "SH2 binding enrichment of the phosphorylated peptide, bacterial display (enrichment ratio); higher = better substrate or ligand; peptides without Tyr show the background", "values": [
      {"sequence": "RTLIRYAKLGN [BEST1_Y131_N133K]", "SH2 binding enrichment": 0.765},
      {"sequence": "DDEENYENVPR [FCRL3_Y722]", "SH2 binding enrichment": 0.699},
      {"sequence": "TDKLFYIFTPG [SLC27A4_Y243_S247P_YF]", "SH2 binding enrichment": 0.401},
      {"sequence": "MASISYDFCRV [BST2_Y6_T4I_YF]", "SH2 binding enrichment": 0.672},
      {"sequence": "KIVYVYVKKRS [DNAI2_Y7_E2K]", "SH2 binding enrichment": 0.537},
      {"sequence": "FKDGQYWIRGR [ACSF3_Y466]", "SH2 binding enrichment": 0.46},
      {"sequence": "DFFDLYGGEKL [PTPN11_Y66_F71L_YF]", "SH2 binding enrichment": 0.71},
      {"sequence": "REIIAYQPFGK [PRKCG_Y529_P524R_YF]", "SH2 binding enrichment": 1.01},
      {"sequence": "LIDGFYRLTAD [JAK2_Y373_YF]", "SH2 binding enrichment": 0.503},
      {"sequence": "QRRYVYYYSYL [PTEN_Y176]", "SH2 binding enrichment": 1},
      {"sequence": "SKLTIYDGRPS [MTM1_Y277_A279G]", "SH2 binding enrichment": 0.439},
      {"sequence": "TSFQMYDKGLV [IARS2_Y231_F227S_YF]", "SH2 binding enrichment": 0.315},
      {"sequence": "SVICTYSPALN [TP53_Y126_T123I]", "SH2 binding enrichment": 0.448},
      {"sequence": "ILTLKYLIEHG [ACTG1_Y69_P70L]", "SH2 binding enrichment": 0.88},
      {"sequence": "WLFFRYLAIGC [ATP2A2_Y836]", "SH2 binding enrichment": 0.36},
      {"sequence": "LINLKYSVEEE [PCDH19_Y27]", "SH2 binding enrichment": 0.525}
    ]},
    {"target": "Jak2 (UniProt O60674)", "sequence (O60674 whole entry, looked up)": "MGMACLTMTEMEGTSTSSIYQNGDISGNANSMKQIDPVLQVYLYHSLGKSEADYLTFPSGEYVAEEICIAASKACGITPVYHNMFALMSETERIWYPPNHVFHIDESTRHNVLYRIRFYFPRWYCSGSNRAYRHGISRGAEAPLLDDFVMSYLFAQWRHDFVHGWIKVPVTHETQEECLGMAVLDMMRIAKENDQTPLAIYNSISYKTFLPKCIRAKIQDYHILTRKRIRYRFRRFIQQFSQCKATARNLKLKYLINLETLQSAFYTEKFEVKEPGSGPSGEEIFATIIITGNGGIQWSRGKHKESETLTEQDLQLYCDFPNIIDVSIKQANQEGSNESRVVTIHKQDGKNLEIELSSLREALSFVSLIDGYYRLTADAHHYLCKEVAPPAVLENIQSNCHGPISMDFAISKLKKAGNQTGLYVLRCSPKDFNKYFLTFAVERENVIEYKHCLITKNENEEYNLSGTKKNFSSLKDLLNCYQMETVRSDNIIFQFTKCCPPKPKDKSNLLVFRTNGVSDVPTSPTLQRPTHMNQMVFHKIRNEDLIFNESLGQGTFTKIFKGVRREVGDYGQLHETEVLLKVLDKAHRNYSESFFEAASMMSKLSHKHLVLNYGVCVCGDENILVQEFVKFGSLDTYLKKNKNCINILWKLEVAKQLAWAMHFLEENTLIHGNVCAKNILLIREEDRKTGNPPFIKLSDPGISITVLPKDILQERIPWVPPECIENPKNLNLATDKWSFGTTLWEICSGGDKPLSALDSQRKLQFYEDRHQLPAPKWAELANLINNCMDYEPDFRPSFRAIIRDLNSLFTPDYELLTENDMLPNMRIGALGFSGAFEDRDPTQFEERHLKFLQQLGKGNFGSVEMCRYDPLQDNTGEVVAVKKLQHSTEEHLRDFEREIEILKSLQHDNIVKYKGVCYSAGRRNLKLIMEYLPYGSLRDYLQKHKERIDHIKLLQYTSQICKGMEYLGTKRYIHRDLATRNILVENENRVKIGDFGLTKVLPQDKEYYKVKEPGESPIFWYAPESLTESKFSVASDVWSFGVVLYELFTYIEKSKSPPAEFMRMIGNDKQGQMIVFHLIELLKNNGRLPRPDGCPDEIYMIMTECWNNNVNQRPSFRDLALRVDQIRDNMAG", "experiment": "phosphorylation enrichment, bacterial display (enrichment ratio); higher = better substrate or ligand; peptides without Tyr show the background", "values": [
      {"sequence": "RTLIRYAKLGN [BEST1_Y131_N133K]", "phosphorylation enrichment": 1.23},
      {"sequence": "DDEENYENVPR [FCRL3_Y722]", "phosphorylation enrichment": 1.11},
      {"sequence": "TDKLFYIFTPG [SLC27A4_Y243_S247P_YF]", "phosphorylation enrichment": 1.65},
      {"sequence": "MASISYDFCRV [BST2_Y6_T4I_YF]", "phosphorylation enrichment": 1.03},
      {"sequence": "KIVYVYVKKRS [DNAI2_Y7_E2K]", "phosphorylation enrichment": 1.17},
      {"sequence": "FKDGQYWIRGR [ACSF3_Y466]", "phosphorylation enrichment": 0.671},
      {"sequence": "DFFDLYGGEKL [PTPN11_Y66_F71L_YF]", "phosphorylation enrichment": 1.88},
      {"sequence": "REIIAYQPFGK [PRKCG_Y529_P524R_YF]", "phosphorylation enrichment": 0.584},
      {"sequence": "LIDGFYRLTAD [JAK2_Y373_YF]", "phosphorylation enrichment": 1.29},
      {"sequence": "QRRYVYYYSYL [PTEN_Y176]", "phosphorylation enrichment": 5.95},
      {"sequence": "SKLTIYDGRPS [MTM1_Y277_A279G]", "phosphorylation enrichment": 0.589},
      {"sequence": "TSFQMYDKGLV [IARS2_Y231_F227S_YF]", "phosphorylation enrichment": 1.03},
      {"sequence": "SVICTYSPALN [TP53_Y126_T123I]", "phosphorylation enrichment": 1.03},
      {"sequence": "ILTLKYLIEHG [ACTG1_Y69_P70L]", "phosphorylation enrichment": 1.08},
      {"sequence": "WLFFRYLAIGC [ATP2A2_Y836]", "phosphorylation enrichment": 1.49},
      {"sequence": "LINLKYSVEEE [PCDH19_Y27]", "phosphorylation enrichment": 1.88}
    ]}
  ]
}
